The values that follow come from patent US20090263383A1 (Amgen, published 2009).

Numbering of substitutions follows the chain as printed.

This test has as its target T1, huCD148 on human endothelial cells (planar migration assay) (human, UniProt Q12913 36-1337).
T1 sequence (looked up): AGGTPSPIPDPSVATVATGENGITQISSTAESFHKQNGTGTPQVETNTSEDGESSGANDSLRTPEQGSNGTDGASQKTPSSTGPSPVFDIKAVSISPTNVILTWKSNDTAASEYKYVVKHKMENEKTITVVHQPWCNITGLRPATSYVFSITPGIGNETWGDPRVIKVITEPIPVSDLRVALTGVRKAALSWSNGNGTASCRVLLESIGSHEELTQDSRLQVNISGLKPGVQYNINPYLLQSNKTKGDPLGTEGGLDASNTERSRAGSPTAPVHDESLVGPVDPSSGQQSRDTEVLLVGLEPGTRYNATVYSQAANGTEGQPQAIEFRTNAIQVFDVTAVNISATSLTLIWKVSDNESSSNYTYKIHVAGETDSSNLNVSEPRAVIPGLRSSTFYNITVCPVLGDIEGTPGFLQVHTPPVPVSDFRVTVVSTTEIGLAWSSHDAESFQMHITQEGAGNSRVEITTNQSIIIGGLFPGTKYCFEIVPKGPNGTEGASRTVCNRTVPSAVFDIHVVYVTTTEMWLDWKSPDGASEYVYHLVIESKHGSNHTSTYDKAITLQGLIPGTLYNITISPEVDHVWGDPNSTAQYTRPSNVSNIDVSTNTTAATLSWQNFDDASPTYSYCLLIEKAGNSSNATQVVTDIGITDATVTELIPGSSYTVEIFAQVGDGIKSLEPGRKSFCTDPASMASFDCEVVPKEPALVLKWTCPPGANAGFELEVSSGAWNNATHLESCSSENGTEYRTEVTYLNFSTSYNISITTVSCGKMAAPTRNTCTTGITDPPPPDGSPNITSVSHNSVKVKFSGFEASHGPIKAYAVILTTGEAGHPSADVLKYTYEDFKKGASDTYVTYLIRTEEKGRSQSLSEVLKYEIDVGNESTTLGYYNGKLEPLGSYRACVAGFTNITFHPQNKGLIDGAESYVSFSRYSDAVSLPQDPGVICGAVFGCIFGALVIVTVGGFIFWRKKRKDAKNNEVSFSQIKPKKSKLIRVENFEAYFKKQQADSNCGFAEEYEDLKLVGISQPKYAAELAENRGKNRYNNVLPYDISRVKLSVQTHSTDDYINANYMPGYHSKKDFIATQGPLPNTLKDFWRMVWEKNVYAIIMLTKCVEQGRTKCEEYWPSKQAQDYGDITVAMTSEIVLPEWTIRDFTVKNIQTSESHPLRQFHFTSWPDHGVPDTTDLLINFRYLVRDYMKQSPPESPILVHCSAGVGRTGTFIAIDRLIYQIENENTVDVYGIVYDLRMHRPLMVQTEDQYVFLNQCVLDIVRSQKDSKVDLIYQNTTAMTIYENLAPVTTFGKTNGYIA
Nature of the test: cell-based or functional assay.

B1: Antibody No. 7 (Ab-7) (antibody, V domains shown)
VH: EVQLVQSGAEVKKPGESLKISCKGYGYDFSRDWIAWVRQMPGKGLEWMGIIYPGDSDTRYSPSFEGQVTISADKSISTAYLQWRSLKASDTAMYYCARQRRLGWFDPWGQGTMVTVSS
VL: RSVLTQPPSVSAAPGQKVTISCSGSTSNIGNNYVSWYQQHPGKAPKLMIYDVSKRPSGVPDRFSGSKSGNSASLDISGLQSEDEADYYCAAWDDSLSEFLFGTGTKLTVL
As to B1, the “inhibiting human endothelial cell migration and/or inhibited angiogenesis in the corneal angiogenesis assay” value was at least 20%.

B2: Antibody No. 6 (Ab-6) (antibody, V domains shown)
VH: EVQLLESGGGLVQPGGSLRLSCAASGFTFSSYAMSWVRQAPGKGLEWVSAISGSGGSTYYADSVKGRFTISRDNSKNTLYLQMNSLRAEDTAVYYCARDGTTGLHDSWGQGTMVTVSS
VL: QSVLTQPPSASGTPGQRVTISCSGSSSNVGSNFVYWYQQFPGTAPKLLIYRNNQRPSGVPDRFSGSKSGTSASLAISGLRSEDEADYYCAAWDDTLNGHYVFGGGTKLTVL
For the molecule B2, the “inhibiting human endothelial cell migration and/or inhibited angiogenesis in the corneal angiogenesis assay” value is at least 20%.

B3: Antibody No. 8 (Ab-8) (antibody, V domains shown)
VH: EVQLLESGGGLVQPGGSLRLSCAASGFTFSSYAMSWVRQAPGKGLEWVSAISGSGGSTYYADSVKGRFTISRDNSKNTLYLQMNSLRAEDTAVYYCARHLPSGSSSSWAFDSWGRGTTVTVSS
VL: SYVLTQPPSASGTPGQRVTISCSGSSSNIGSNYVYWYQQLPGTAPKLLIYRNNQRPSGVPDRFSGSKSGTSASLAISGLQSEDEADYYCEAWDDNVDGPVFGGGTKLTVL
With B3, the “inhibiting human endothelial cell migration and/or inhibited angiogenesis in the corneal angiogenesis assay” value was at least 20%.

B4: Antibody No. 3 (Ab-3) (antibody, V domains shown)
VH: GVQLVQSGAEVKKPGASVKVSCKASGYTFTSYYMHWVRQAPGQGLEWMGIINPSGGSTSYAQKFQGRVTMTRDTSTSTVYMELSSLRSEDTAVYYCARRVISGAFDIWGQGTMVTVSS
VL: DIQMTQSPSTLSASIGDRVTITCRASEGIYHWLAWYQQKPGKAPKLLIYKASSLASGAPSRFSGSGSGTDFTLTISSLQPDDFATYYCQQYSNYPLTFGGGTKLEIK
Turning to B4, the “inhibiting human endothelial cell migration and/or inhibited angiogenesis in the corneal angiogenesis assay” value is at least 20%.

B5: Antibody No. 4 (Ab-4) (antibody, V domains shown)
VH: QVQLVQSGAEVKKPGASVKVSCKASGYTFTSYYMHWVRQAPGQGLEWMGIINPSDGSTRYVEKFQGRVTMTRDTSTSTVYMELSSLRSEDTAVYFCARGMGPGPHYHFYMDVWGKGTMVTVSS
VL: SSELTQDPAVSVALGQTVRITCQGDSLRSYYTNWFQQKPGQAPLLVVYAKNKRPSGIPDRFSGSSSGNTASLTITGAQAEDEADYYCHSRDSGGNHVLFGGGTKLTVL
For B5, the “inhibiting human endothelial cell migration and/or inhibited angiogenesis in the corneal angiogenesis assay” value was at least 20%.

B6: Antibody No. 5 (Ab-5) (antibody, V domains shown)
VH: QVQLVQSGAEVKKPGASVKVSCKASGYTFTGQYIHWVRQAPGQGLEWMGWISAYNGYTDYAQKVQGRVTMTTDTSTSTAYMELRSLRSDDTAVYYCAREVWPVAAADTFSVFDIWGRGTLVTVSS
VL: B5 VL with T32A, N33S, F35Y, L44V, V47I, A49G, K52N, H88N, G93S, L98V
For the molecule B6, the “inhibiting human endothelial cell migration and/or inhibited angiogenesis in the corneal angiogenesis assay” value was at least 20%.

B7: Antibody No. 2 (Ab-2) (antibody, V domains shown)
VH: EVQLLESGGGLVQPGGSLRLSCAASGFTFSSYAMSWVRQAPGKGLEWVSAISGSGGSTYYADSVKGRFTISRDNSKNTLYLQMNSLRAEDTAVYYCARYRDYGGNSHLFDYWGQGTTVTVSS
VL: EIVMTQSPSSLPASVGDRVTITCRASQNIKTYLHWYQQKPGKAPNLLIYAASNLQIGVPSRFSGSGSGTDFTLTISSLQPEDFATYFCQQSYITPPTFGQGTRLEIK
As to B7, the “inhibiting human endothelial cell migration and/or inhibited angiogenesis in the corneal angiogenesis assay” value is at least 20%.

B8: Antibody No. 1 (Ab-1) (antibody, V domains shown)
VH: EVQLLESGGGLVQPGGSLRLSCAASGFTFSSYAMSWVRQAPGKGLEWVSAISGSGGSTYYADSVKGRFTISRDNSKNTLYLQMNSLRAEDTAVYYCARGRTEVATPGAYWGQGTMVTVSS
VL: QAVLTQPSSVSGAPGQRVTISCTGSSSNIGAGYDVHWYQQLPGTAPKLLIYGNSNRPSGVPDRFSGSKSGTSASLAVTGLQAEDEADYYCQSYDSSLSDVVFGGGTKLTVL
For the molecule B8, the “inhibiting human endothelial cell migration and/or inhibited angiogenesis in the corneal angiogenesis assay” value is at least 20%.
